# Experimental data reported in patent EP1942187B1.
# Columns and labels:
# Experiment in all cases: cell-based or functional assay
# [1] = molecular target: IL10Rb (CRF2-4) (human) (UniProt Q08334)
# [2] = molecular target: human zcytor19 (human)
# [3] = molecular target: zcytoR19 and IL10Rb (CRF2-4) coexpressed on BHK cells (human)
# IL10Rb (CRF2-4) (human), sequence (Q08334 20-325 limits assumed, form in doubt): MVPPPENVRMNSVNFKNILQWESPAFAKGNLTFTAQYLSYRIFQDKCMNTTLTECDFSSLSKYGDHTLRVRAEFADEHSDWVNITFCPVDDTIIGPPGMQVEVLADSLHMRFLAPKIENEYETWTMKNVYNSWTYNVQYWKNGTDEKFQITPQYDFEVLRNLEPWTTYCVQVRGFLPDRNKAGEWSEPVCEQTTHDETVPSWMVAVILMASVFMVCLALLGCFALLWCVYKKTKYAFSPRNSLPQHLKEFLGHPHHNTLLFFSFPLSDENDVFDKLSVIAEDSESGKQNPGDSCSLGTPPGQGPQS
substance,measurement,setting,value
zcyto20-CEE (ligand),"Optical Density (570nm), MTT, EMCV-infected HuzcytoR19-overexpressing 293 cells; Zcyto20-CEE 0.5 ng/ml; Anti-IL10Rb 5 ug/ml",[1],0.95 OD 570nm
same,"Optical Density (570nm), MTT, EMCV-infected HuzcytoR19-overexpressing 293 cells; Zcyto20-CEE 0.5 ng/ml; Anti-LeptinR 5 ug/ml (control antibody)",[1],0.24 OD 570nm
same,"Optical Density (570nm), MTT, EMCV-infected wild-type 293 cells; Zcyto20-CEE 200 ng/ml; Anti-IL10Rb 5 ug/ml",[1],0.94 OD 570nm
same,"Optical Density (570nm), MTT, EMCV-infected wild-type 293 cells; Zcyto20-CEE 200 ng/ml; Anti-LeptinR 5 ug/ml (control antibody)",[1],0.88 OD 570nm
zcyto21 (from UniProt Q8IU54 20-200) (ligand),ISRE-luciferase fold induction; wild-type 293 cells; Zcyto21 0.001 ng/ml; + IL10Rb neutralizing antibody (2.5 ug/ml) (fold induction),[1],1.3
same,ISRE-luciferase fold induction; wild-type 293 cells; Zcyto21 0.001 ng/ml; no antibody (fold induction),[1],1.2
same,ISRE-luciferase fold induction; wild-type 293 cells; Zcyto21 0.01 ng/ml; + IL10Rb neutralizing antibody (2.5 ug/ml) (fold induction),[1],1.3
same,ISRE-luciferase fold induction; wild-type 293 cells; Zcyto21 0.01 ng/ml; no antibody (fold induction),[1],1.2
same,ISRE-luciferase fold induction; wild-type 293 cells; Zcyto21 0.1 ng/ml; + IL10Rb neutralizing antibody (2.5 ug/ml) (fold induction),[1],1.3
same,ISRE-luciferase fold induction; wild-type 293 cells; Zcyto21 0.1 ng/ml; no antibody (fold induction),[1],1.1
same,ISRE-luciferase fold induction; wild-type 293 cells; Zcyto21 1 ng/ml; + IL10Rb neutralizing antibody (2.5 ug/ml) (fold induction),[1],1.3
same,ISRE-luciferase fold induction; wild-type 293 cells; Zcyto21 1 ng/ml; no antibody (fold induction),[1],1.5
same,ISRE-luciferase fold induction; wild-type 293 cells; Zcyto21 10 ng/ml; + IL10Rb neutralizing antibody (2.5 ug/ml) (fold induction),[1],1.4
same,ISRE-luciferase fold induction; wild-type 293 cells; Zcyto21 10 ng/ml; no antibody (fold induction),[1],3.2
same,ISRE-luciferase fold induction; wild-type 293 cells; Zcyto21 100 ng/ml; + IL10Rb neutralizing antibody (2.5 ug/ml) (fold induction),[1],1.8
same,ISRE-luciferase fold induction; wild-type 293 cells; Zcyto21 100 ng/ml; no antibody (fold induction),[1],4.1
same,ISRE-luciferase fold induction; zcytoR19-overexpressing 293 cells; Zcyto21 0.001 ng/ml; + IL10Rb neutralizing antibody (2.5 ug/ml) (fold induction),[1],1
same,ISRE-luciferase fold induction; zcytoR19-overexpressing 293 cells; Zcyto21 0.001 ng/ml; no antibody (fold induction),[1],1.1
same,ISRE-luciferase fold induction; zcytoR19-overexpressing 293 cells; Zcyto21 0.01 ng/ml; + IL10Rb neutralizing antibody (2.5 ug/ml) (fold induction),[1],1.1
same,ISRE-luciferase fold induction; zcytoR19-overexpressing 293 cells; Zcyto21 0.01 ng/ml; no antibody (fold induction),[1],3.5
same,ISRE-luciferase fold induction; zcytoR19-overexpressing 293 cells; Zcyto21 0.1 ng/ml; + IL10Rb neutralizing antibody (2.5 ug/ml) (fold induction),[1],1
same,ISRE-luciferase fold induction; zcytoR19-overexpressing 293 cells; Zcyto21 0.1 ng/ml; no antibody (fold induction),[1],1.5
same,ISRE-luciferase fold induction; zcytoR19-overexpressing 293 cells; Zcyto21 1 ng/ml; + IL10Rb neutralizing antibody (2.5 ug/ml) (fold induction),[1],5.8
same,ISRE-luciferase fold induction; zcytoR19-overexpressing 293 cells; Zcyto21 1 ng/ml; no antibody (fold induction),[1],35
same,ISRE-luciferase fold induction; zcytoR19-overexpressing 293 cells; Zcyto21 10 ng/ml; + IL10Rb neutralizing antibody (2.5 ug/ml) (fold induction),[1],28
same,ISRE-luciferase fold induction; zcytoR19-overexpressing 293 cells; Zcyto21 10 ng/ml; no antibody (fold induction),[1],48
same,ISRE-luciferase fold induction; zcytoR19-overexpressing 293 cells; Zcyto21 100 ng/ml; + IL10Rb neutralizing antibody (2.5 ug/ml) (fold induction),[1],31
same,ISRE-luciferase fold induction; zcytoR19-overexpressing 293 cells; Zcyto21 100 ng/ml; no antibody (fold induction),[1],45
same,ISRE-luciferase fold induction; 293 cells transfected with ISRE-Luc./Zcytor19; Zcyto21 125ng/ml (fold induction),[2],108
same,ISRE-luciferase fold induction; BHK cells transfected with zcytoR19 alone; zcyto21 0.001 ng/ml (fold induction),[2],1.3
same,ISRE-luciferase fold induction; BHK cells transfected with zcytoR19 alone; zcyto21 0.01 ng/ml (fold induction),[2],1.4
same,ISRE-luciferase fold induction; BHK cells transfected with zcytoR19 alone; zcyto21 0.1 ng/ml (fold induction),[2],1.4
same,ISRE-luciferase fold induction; BHK cells transfected with zcytoR19 alone; zcyto21 1 ng/ml (fold induction),[2],2
same,ISRE-luciferase fold induction; BHK cells transfected with zcytoR19 alone; zcyto21 10 ng/ml (fold induction),[2],2.4
same,ISRE-luciferase fold induction; BHK cells transfected with zcytoR19 alone; zcyto21 100 ng/ml (fold induction),[2],2.6
same,ISRE-luciferase fold induction; BHK cells transfected with zcytoR19 alone; zcyto21 1000 ng/ml (fold induction),[2],3.3
same,ISRE-luciferase fold induction; BHK cells transfected with zcytoR19 and IL10Rb (CRF2-4); zcyto21 0.001 ng/ml (fold induction),[3],1.3
same,ISRE-luciferase fold induction; BHK cells transfected with zcytoR19 and IL10Rb (CRF2-4); zcyto21 0.01 ng/ml (fold induction),[3],1.6
same,ISRE-luciferase fold induction; BHK cells transfected with zcytoR19 and IL10Rb (CRF2-4); zcyto21 0.1 ng/ml (fold induction),[3],2.2
same,ISRE-luciferase fold induction; BHK cells transfected with zcytoR19 and IL10Rb (CRF2-4); zcyto21 1 ng/ml (fold induction),[3],2.5
same,ISRE-luciferase fold induction; BHK cells transfected with zcytoR19 and IL10Rb (CRF2-4); zcyto21 10 ng/ml (fold induction),[3],2.6
same,ISRE-luciferase fold induction; BHK cells transfected with zcytoR19 and IL10Rb (CRF2-4); zcyto21 100 ng/ml (fold induction),[3],2.5
same,ISRE-luciferase fold induction; BHK cells transfected with zcytoR19 and IL10Rb (CRF2-4); zcyto21 1000 ng/ml (fold induction),[3],2.2
zcyto22 (ligand),ISRE-luciferase fold induction; wild-type 293 cells; Zcyto22 0.01 ng/ml; + IL10Rb neutralizing antibody (8 ug/ml) (fold induction),[1],0.9
same,ISRE-luciferase fold induction; wild-type 293 cells; Zcyto22 0.01 ng/ml; no antibody (fold induction),[1],0.9
same,ISRE-luciferase fold induction; wild-type 293 cells; Zcyto22 0.1 ng/ml; + IL10Rb neutralizing antibody (8 ug/ml) (fold induction),[1],0.8
same,ISRE-luciferase fold induction; wild-type 293 cells; Zcyto22 0.1 ng/ml; no antibody (fold induction),[1],1.2
same,ISRE-luciferase fold induction; wild-type 293 cells; Zcyto22 1 ng/ml; + IL10Rb neutralizing antibody (8 ug/ml) (fold induction),[1],0.8
same,ISRE-luciferase fold induction; wild-type 293 cells; Zcyto22 1 ng/ml; no antibody (fold induction),[1],1.8
same,ISRE-luciferase fold induction; wild-type 293 cells; Zcyto22 10 ng/ml; + IL10Rb neutralizing antibody (8 ug/ml) (fold induction),[1],1
same,ISRE-luciferase fold induction; wild-type 293 cells; Zcyto22 10 ng/ml; no antibody (fold induction),[1],8
same,ISRE-luciferase fold induction; wild-type 293 cells; Zcyto22 100 ng/ml; + IL10Rb neutralizing antibody (8 ug/ml) (fold induction),[1],1.2
same,ISRE-luciferase fold induction; wild-type 293 cells; Zcyto22 100 ng/ml; no antibody (fold induction),[1],11
same,ISRE-luciferase fold induction; zcytoR19-overexpressing 293 cells; Zcyto22 0.01 ng/ml; + IL10Rb neutralizing antibody (8 ug/ml) (fold induction),[1],1.3
same,ISRE-luciferase fold induction; zcytoR19-overexpressing 293 cells; Zcyto22 0.01 ng/ml; no antibody (fold induction),[1],1
same,ISRE-luciferase fold induction; zcytoR19-overexpressing 293 cells; Zcyto22 0.1 ng/ml; + IL10Rb neutralizing antibody (8 ug/ml) (fold induction),[1],1.1
same,ISRE-luciferase fold induction; zcytoR19-overexpressing 293 cells; Zcyto22 0.1 ng/ml; no antibody (fold induction),[1],8.4
same,ISRE-luciferase fold induction; zcytoR19-overexpressing 293 cells; Zcyto22 1 ng/ml; + IL10Rb neutralizing antibody (8 ug/ml) (fold induction),[1],2.3
same,ISRE-luciferase fold induction; zcytoR19-overexpressing 293 cells; Zcyto22 1 ng/ml; no antibody (fold induction),[1],69
same,ISRE-luciferase fold induction; zcytoR19-overexpressing 293 cells; Zcyto22 10 ng/ml; + IL10Rb neutralizing antibody (8 ug/ml) (fold induction),[1],39
same,ISRE-luciferase fold induction; zcytoR19-overexpressing 293 cells; Zcyto22 10 ng/ml; no antibody (fold induction),[1],97
same,ISRE-luciferase fold induction; zcytoR19-overexpressing 293 cells; Zcyto22 100 ng/ml; + IL10Rb neutralizing antibody (8 ug/ml) (fold induction),[1],76
same,ISRE-luciferase fold induction; zcytoR19-overexpressing 293 cells; Zcyto22 100 ng/ml; no antibody (fold induction),[1],82
same,ISRE-luciferase fold induction; 293 cells transfected with ISRE-Luc./Zcytor19; Zcyto22 125ng/ml (fold induction),[2],104
same,ISRE-luciferase fold induction; BHK cells transfected with zcytoR19 alone; zcyto22 0.001 ng/ml (fold induction),[2],1.2
same,ISRE-luciferase fold induction; BHK cells transfected with zcytoR19 alone; zcyto22 0.01 ng/ml (fold induction),[2],1.2
same,ISRE-luciferase fold induction; BHK cells transfected with zcytoR19 alone; zcyto22 0.1 ng/ml (fold induction),[2],1.1
same,ISRE-luciferase fold induction; BHK cells transfected with zcytoR19 alone; zcyto22 1 ng/ml (fold induction),[2],1.5
same,ISRE-luciferase fold induction; BHK cells transfected with zcytoR19 alone; zcyto22 10 ng/ml (fold induction),[2],1.9
same,ISRE-luciferase fold induction; BHK cells transfected with zcytoR19 alone; zcyto22 100 ng/ml (fold induction),[2],2
same,ISRE-luciferase fold induction; BHK cells transfected with zcytoR19 alone; zcyto22 1000 ng/ml (fold induction),[2],1.8
same,ISRE-luciferase fold induction; BHK cells transfected with zcytoR19 and IL10Rb (CRF2-4); zcyto22 0.001 ng/ml (fold induction),[3],1.3
same,ISRE-luciferase fold induction; BHK cells transfected with zcytoR19 and IL10Rb (CRF2-4); zcyto22 0.01 ng/ml (fold induction),[3],1.7
same,ISRE-luciferase fold induction; BHK cells transfected with zcytoR19 and IL10Rb (CRF2-4); zcyto22 0.1 ng/ml (fold induction),[3],2.4
same,ISRE-luciferase fold induction; BHK cells transfected with zcytoR19 and IL10Rb (CRF2-4); zcyto22 1 ng/ml (fold induction),[3],2.7
same,ISRE-luciferase fold induction; BHK cells transfected with zcytoR19 and IL10Rb (CRF2-4); zcyto22 10 ng/ml (fold induction),[3],2.7
same,ISRE-luciferase fold induction; BHK cells transfected with zcytoR19 and IL10Rb (CRF2-4); zcyto22 100 ng/ml (fold induction),[3],2.2
same,ISRE-luciferase fold induction; BHK cells transfected with zcytoR19 and IL10Rb (CRF2-4); zcyto22 1000 ng/ml (fold induction),[3],2.2
